Assays:
HLA-B*27:05 = assay: IEDB peptide-MHC binding, purified MHC/direct/fluorescence; filed as Kd, often an IC50 or EC50 that approximates it; ≥ and ≤ were set here for values at or beyond the usual limits of such assays
HLA-B*48:01 = assay: as above
HLA-A*69:01 [1] = assay: as above
HLA-B*58:01 = assay: as above
HLA-A*26:01 [2] = assay: as above
HLA-A*26:02 = assay: as above; details: source organism: Coxiella burnetii Q321
HLA-B*46:01 [3] = assay: as above
HLA-A*26:03 = assay: as above; details: source organism: Coxiella burnetii Q321
HLA-A*03:01 [4] = assay: as above
HLA-B*40:01 = assay: as above
HLA-A*11:01 [5] = assay: as above
HLA-A*31:01 = assay: as above
HLA-B*15:17 = assay: as above
HLA-B*57:01 [6] = assay: as above
HLA-A*30:01 = assay: IEDB peptide-MHC binding, purified MHC/competitive/fluorescence; filed as Kd, often an IC50 or EC50 that approximates it; ≥ and ≤ were set here for values at or beyond the usual limits of such assays; details: source organism: Coxiella burnetii RSA 493
HLA-B*08:01 [7] = assay: as above; details: source organism: Coxiella burnetii RSA 493
HLA-B*39:01 = assay: as above
HLA-A*02:01 [8] = assay: as above
HLA-B*15:01 [9] = assay: as above
HLA-A*01:01 [10] = assay: as above; details: source organism: Coxiella burnetii RSA 493
HLA-B*08:01 [11] = assay: IEDB peptide-MHC binding, purified MHC/direct/fluorescence; filed as Kd, often an IC50 or EC50 that approximates it; ≥ and ≤ were set here for values at or beyond the usual limits of such assays; details: source organism: Mycobacterium tuberculosis str. Haarlem
HLA-B*51:01 = assay: as above; details: source organism: Mycobacterium tuberculosis
HLA-B*15:09 = assay: as above; details: source organism: Mycobacterium tuberculosis str. Haarlem
HLA-A*02:01 [12] = assay: as above; details: source organism: Mycobacterium tuberculosis
HLA-B*18:01 = assay: as above; details: source organism: Mycobacterium tuberculosis
HLA-B*38:01 = assay: as above; details: source organism: Mycobacterium tuberculosis str. Haarlem
HLA-B*08:02 = assay: as above; details: source organism: Mycobacterium tuberculosis str. Haarlem
HLA-A*01:01 [13] = assay: as above; details: source organism: Mycobacterium tuberculosis
HLA-B*83:01 = assay: IEDB peptide-MHC binding, purified MHC/competitive/fluorescence; filed as Kd, often an IC50 or EC50 that approximates it; ≥ and ≤ were set here for values at or beyond the usual limits of such assays; details: source organism: Mycobacterium tuberculosis C
HLA-B*15:42 = assay: as above; details: source organism: Mycobacterium tuberculosis C
HLA-B*45:06 = assay: as above; details: source organism: Mycobacterium tuberculosis C
HLA-A*24:02 = assay: IEDB peptide-MHC binding, purified MHC/competitive/fluorescence; ≥ and ≤ were set here for values at or beyond the usual limits of such assays; details: source organism: Zaire ebolavirus
HLA-B*07:02 = assay: as above; details: source organism: Zaire ebolavirus
HLA-A*02:01 [14] = assay: as above; details: source organism: Zaire ebolavirus
HLA-B*15:01 [15] = assay: as above; details: source organism: Zaire ebolavirus
HLA-A*03:01 [16] = assay: as above; details: source organism: Zaire ebolavirus
HLA-A*01:01 [17] = assay: as above; details: source organism: Zaire ebolavirus
HLA-A*11:01 [18] = assay: as above; details: source organism: Zaire ebolavirus
HLA-A*02:03 = assay: IEDB peptide-MHC binding, purified MHC/direct/fluorescence; filed as Kd, often an IC50 or EC50 that approximates it; ≥ and ≤ were set here for values at or beyond the usual limits of such assays; details: source organism: Zaire ebolavirus
HLA-A*23:01 = assay: as above; details: source organism: Zaire ebolavirus
HLA-A*02:16 = assay: as above; details: source organism: Zaire ebolavirus
HLA-A*02:12 = assay: as above; details: source organism: Zaire ebolavirus
HLA-A*24:03 = assay: as above; details: source organism: Zaire ebolavirus
HLA-A*02:19 = assay: as above; details: source organism: Zaire ebolavirus
HLA-B*35:01 = assay: IEDB peptide-MHC binding, purified MHC/competitive/fluorescence; filed as Kd, often an IC50 or EC50 that approximates it; ≥ and ≤ were set here for values at or beyond the usual limits of such assays; details: source organism: Zaire ebolavirus
HLA-A*69:01 [19] = assay: as above; details: source organism: Zaire ebolavirus
HLA-A*26:01 [20] = assay: as above; details: source organism: Zaire ebolavirus
HLA-B*46:01 [21] = assay: as above; details: source organism: Zaire ebolavirus
HLA-B*27:03 = assay: as above; details: source organism: Zaire ebolavirus
HLA-B*57:01 [22] = assay: as above; details: source organism: Zaire ebolavirus
[23] = source organism: Coxiella burnetii
[24] = source organism: Coxiella burnetii RSA 493
[25] = source organism: Mycobacterium tuberculosis
[26] = source organism: Zaire ebolavirus

EIYRTLYGL
Kd (HLA-B*27:05; [23]): ≥ 20 µM | Kd (HLA-B*48:01; [23]): ≥ 20 µM | Kd (HLA-A*69:01 [1]; [23]): 0.0014 µM | Kd (HLA-B*58:01; [23]): ≥ 20 µM | Kd (HLA-A*26:01 [2]; source organism: Coxiella burnetii Q321): 0.067 µM | Kd (HLA-A*26:02): 0.006 µM | Kd (HLA-B*46:01 [3]; [23]): ≥ 20 µM | Kd (HLA-A*26:03): 0.182 µM | Kd (HLA-A*03:01 [4]; [23]): ≥ 20 µM | Kd (HLA-B*40:01; [23]): ≥ 20 µM | Kd (HLA-A*11:01 [5]; [23]): ≥ 20 µM | Kd (HLA-A*31:01; [23]): ≥ 20 µM | Kd (HLA-B*15:17; [23]): 0.384 µM | Kd (HLA-B*57:01 [6]; [23]): ≥ 20 µM | Kd (HLA-A*30:01): 2.47 µM | Kd (HLA-B*08:01 [7]): 7 µM | Kd (HLA-B*39:01; [24]): 2.74 µM | Kd (HLA-A*02:01 [8]; [24]): ≥ 20 µM | Kd (HLA-B*15:01 [9]; [24]): ≥ 20 µM | Kd (HLA-A*01:01 [10]): 4.29 µM

RPAGARAAF
Kd (HLA-B*08:01 [11]): 6.85 µM | Kd (HLA-B*27:05; [25]): ≥ 20 µM | Kd (HLA-B*51:01): ≥ 20 µM | Kd (HLA-B*48:01; [25]): ≥ 20 µM | Kd (HLA-B*15:09): ≥ 20 µM | Kd (HLA-A*69:01 [1]; [25]): ≥ 20 µM | Kd (HLA-B*58:01; [25]): ≥ 20 µM | Kd (HLA-A*26:01 [2]; source organism: Mycobacterium tuberculosis str. Haarlem): ≥ 20 µM | Kd (HLA-A*02:01 [12]): ≥ 20 µM | Kd (HLA-B*46:01 [3]; [25]): ≥ 20 µM | Kd (HLA-B*18:01): 11.8 µM | Kd (HLA-B*38:01): ≥ 20 µM | Kd (HLA-A*03:01 [4]; [25]): ≥ 20 µM | Kd (HLA-B*08:02): ≥ 20 µM | Kd (HLA-B*40:01; [25]): ≥ 20 µM | Kd (HLA-A*01:01 [13]): ≥ 20 µM | Kd (HLA-A*11:01 [5]; [25]): ≥ 20 µM | Kd (HLA-A*31:01; [25]): ≥ 20 µM | Kd (HLA-B*15:17; [25]): ≥ 20 µM | Kd (HLA-B*57:01 [6]; [25]): ≥ 20 µM | Kd (HLA-B*83:01): 0.245 µM | Kd (HLA-B*15:42): ≥ 5 µM | Kd (HLA-B*15:01 [9]; source organism: Mycobacterium tuberculosis C): ≥ 20 µM | Kd (HLA-B*45:06): ≥ 5 µM

TVAPPAPVY
IC50 (HLA-A*24:02): 5.17 µM | IC50 (HLA-B*07:02): ≥ 138 µM | IC50 (HLA-A*02:01 [14]): ≥ 119 µM | IC50 (HLA-B*15:01 [15]): 8.09 µM | IC50 (HLA-A*03:01 [16]): 6.32 µM | IC50 (HLA-A*01:01 [17]): 18.2 µM | IC50 (HLA-A*11:01 [18]): 0.276 µM | Kd (HLA-A*02:03): ≥ 20 µM | Kd (HLA-B*58:01; [26]): 1.1 µM | Kd (HLA-A*23:01): ≥ 20 µM | Kd (HLA-A*02:16): ≥ 20 µM | Kd (HLA-A*02:12): ≥ 20 µM | Kd (HLA-A*24:03): ≥ 20 µM | Kd (HLA-A*02:19): ≥ 20 µM | Kd (HLA-B*35:01): 0.0002 µM | Kd (HLA-A*69:01 [19]): ≥ 20 µM | Kd (HLA-B*39:01; [26]): ≥ 20 µM | Kd (HLA-A*26:01 [20]): ≥ 20 µM | Kd (HLA-A*02:01 [8]; [26]): ≥ 20 µM | Kd (HLA-B*46:01 [21]): ≥ 20 µM | Kd (HLA-B*27:03): ≥ 20 µM | Kd (HLA-B*57:01 [22]): ≥ 20 µM
